Measured values: article PMC2756588

Key:
Test in all cases: SPOT array
Bzz1-1, P38822 = target: T1, Bzz1-1, P38822; conditions: median of control spots 4446
T1 sequence (P38822 478-572, looked up): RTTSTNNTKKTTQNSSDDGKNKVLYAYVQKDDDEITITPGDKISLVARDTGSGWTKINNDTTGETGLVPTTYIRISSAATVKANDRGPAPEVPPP

Boi2, P39969 = target: T2, Boi2, P39969; conditions: median of control spots 1161
T2 sequence (P39969 32-116, looked up): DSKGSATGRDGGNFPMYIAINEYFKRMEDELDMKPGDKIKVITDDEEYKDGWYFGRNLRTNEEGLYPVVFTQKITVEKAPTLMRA

Bbc1, P47068 = target: T3, Bbc1, P47068; conditions: median of control spots 796
T3 sequence (P47068 1-78, looked up): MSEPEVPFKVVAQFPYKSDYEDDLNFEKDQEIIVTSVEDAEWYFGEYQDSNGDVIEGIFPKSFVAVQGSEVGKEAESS

Sla1-2, P32790 = target: T4, Sla1-2, P32790; conditions: median of control spots 712
T4 sequence (P32790 60-140, looked up): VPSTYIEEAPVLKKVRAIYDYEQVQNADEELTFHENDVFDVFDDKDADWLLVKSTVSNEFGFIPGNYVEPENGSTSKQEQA

Myo3, P36006 = conditions: median of control spots 468
Rvs167, P39743 = conditions: median of control spots 2707
Rvs167, P39743, sequence (P39743 419-482): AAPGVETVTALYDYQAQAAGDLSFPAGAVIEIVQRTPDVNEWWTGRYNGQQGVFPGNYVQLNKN

Pin3, Q06449 = target: T5, Pin3, Q06449; conditions: median of control spots 2171
T5 sequence (Q06449 53-122, looked up): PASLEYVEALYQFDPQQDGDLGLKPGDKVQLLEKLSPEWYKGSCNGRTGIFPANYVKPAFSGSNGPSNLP

Hse1, P38753 = target: T6, Hse1, P38753; conditions: median of control spots 1727
T6 sequence (P38753 208-285, looked up): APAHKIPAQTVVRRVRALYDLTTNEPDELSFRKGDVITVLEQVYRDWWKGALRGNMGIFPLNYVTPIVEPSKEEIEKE

Bzz1-2, P38822 = target: T7, Bzz1-2, P38822; conditions: median of control spots 4538
T7 sequence (P38822 568-633, looked up): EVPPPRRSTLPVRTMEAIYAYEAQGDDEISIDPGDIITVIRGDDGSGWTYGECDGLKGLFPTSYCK

Bud14, P27637 = target: T8, Bud14, P27637; conditions: median of control spots 956
T8 sequence (P27637 247-328, looked up): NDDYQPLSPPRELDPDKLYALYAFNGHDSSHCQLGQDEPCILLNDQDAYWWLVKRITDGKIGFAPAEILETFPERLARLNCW

Fus1, P11710 = target: T9, Fus1, P11710; conditions: median of control spots 1200
T9 sequence (P11710 432-512, looked up): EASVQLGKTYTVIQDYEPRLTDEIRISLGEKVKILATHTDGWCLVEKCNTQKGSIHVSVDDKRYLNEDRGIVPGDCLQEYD

Bem1-2, P29366 = conditions: median of control spots 4347
Bem1-2, P29366, sequence (P29366 139-227): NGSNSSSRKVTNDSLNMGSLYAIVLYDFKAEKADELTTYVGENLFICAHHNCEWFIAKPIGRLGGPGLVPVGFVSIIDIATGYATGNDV

Sho1, P40073 = conditions: median of control spots 1148
Sho1, P40073, sequence (P40073 287-367): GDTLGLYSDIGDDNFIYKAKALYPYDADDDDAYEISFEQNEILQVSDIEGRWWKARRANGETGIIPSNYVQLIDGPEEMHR

Lsb1, P53281 = target: T10, Lsb1, P53281; conditions: median of control spots 388
T10 sequence (P53281 45-122, looked up): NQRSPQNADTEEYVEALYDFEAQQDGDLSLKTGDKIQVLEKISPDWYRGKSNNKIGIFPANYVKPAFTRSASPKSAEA

Pex13, P80667 = target: T11, Pex13, P80667; conditions: median of control spots 1341
T11 sequence (P80667 295-386, looked up): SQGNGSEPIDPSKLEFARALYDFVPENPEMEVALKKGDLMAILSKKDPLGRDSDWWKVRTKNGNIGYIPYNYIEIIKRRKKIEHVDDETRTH

GST = conditions: median of control spots 978
Lsb3, P43603 = target: T12, Lsb3, P43603; conditions: median of control spots 406
T12 sequence (P43603 385-451, looked up): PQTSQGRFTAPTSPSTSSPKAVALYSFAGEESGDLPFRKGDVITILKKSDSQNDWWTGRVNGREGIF

Sla1-3, P32790 = target: T13, Sla1-3, P32790; conditions: median of control spots 5475
T13 sequence (P32790 344-424, looked up): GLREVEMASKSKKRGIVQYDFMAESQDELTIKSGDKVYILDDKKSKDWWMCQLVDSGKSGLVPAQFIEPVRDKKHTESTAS

Cyk3, Q07533 = target: T14, Cyk3, Q07533; conditions: median of control spots 1451
T14 sequence (Q07533 1-83, looked up): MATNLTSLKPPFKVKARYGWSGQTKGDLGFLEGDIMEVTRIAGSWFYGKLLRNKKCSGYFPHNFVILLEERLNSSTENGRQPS

Cdc25, P04821 = target: T15, Cdc25, P04821; conditions: median of control spots 969
T15 sequence (P04821 50-136, looked up): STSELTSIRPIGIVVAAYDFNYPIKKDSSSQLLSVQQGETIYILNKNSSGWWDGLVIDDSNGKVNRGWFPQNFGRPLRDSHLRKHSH

Myo5, Q04439 = target: T16, Myo5, Q04439; conditions: median of control spots 471
T16 sequence (Q04439 1072-1160, looked up): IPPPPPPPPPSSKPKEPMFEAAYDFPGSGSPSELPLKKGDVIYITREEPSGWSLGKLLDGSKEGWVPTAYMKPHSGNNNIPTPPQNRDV

Hof1, Q05080 = target: T17, Hof1, Q05080; conditions: median of control spots 4086
T17 sequence (Q05080 590-669, looked up): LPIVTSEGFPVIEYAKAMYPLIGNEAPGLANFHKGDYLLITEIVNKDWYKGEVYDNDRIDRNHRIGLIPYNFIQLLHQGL

Abp1, P15891 = target: T18, Abp1, P15891; conditions: median of control spots 935
T18 sequence (P15891 535-592, looked up): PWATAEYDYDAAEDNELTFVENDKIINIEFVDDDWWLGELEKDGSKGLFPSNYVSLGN

Bem1-1, P29366 = conditions: median of control spots 4282
Bem1-1, P29366, sequence (P29366 55-141): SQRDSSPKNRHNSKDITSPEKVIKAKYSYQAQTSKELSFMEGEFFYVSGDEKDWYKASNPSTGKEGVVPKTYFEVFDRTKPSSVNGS

Lsb4, P32793 = target: T19, Lsb4, P32793; conditions: median of control spots 397
T19 sequence (P32793 402-468, looked up): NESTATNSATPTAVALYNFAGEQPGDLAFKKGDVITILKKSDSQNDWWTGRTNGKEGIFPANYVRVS

Nbp2, Q12163 = target: T20, Nbp2, Q12163; conditions: median of control spots 357
T20 sequence (Q12163 103-180, looked up): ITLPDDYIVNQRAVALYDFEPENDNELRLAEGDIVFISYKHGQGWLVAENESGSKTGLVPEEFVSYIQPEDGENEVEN

Boi1, P38041 = target: T21, Boi1, P38041; conditions: median of control spots 1162
T21 sequence (P38041 1-86, looked up): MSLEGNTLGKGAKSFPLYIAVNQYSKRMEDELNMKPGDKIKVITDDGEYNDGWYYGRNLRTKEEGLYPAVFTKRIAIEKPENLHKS

Binder	SPOT intensity (Bzz1-1, P38822)	SPOT intensity (Boi2, P39969)	SPOT intensity (Bbc1, P47068)	SPOT intensity (Sla1-2, P32790)	SPOT intensity (Myo3, P36006)	SPOT intensity (Rvs167, P39743)	SPOT intensity (Pin3, Q06449)	SPOT intensity (Hse1, P38753)	SPOT intensity (Bzz1-2, P38822)	SPOT intensity (Bud14, P27637)	SPOT intensity (Fus1, P11710)	SPOT intensity (Bem1-2, P29366)	SPOT intensity (Sho1, P40073)	SPOT intensity (Lsb1, P53281)	SPOT intensity (Pex13, P80667)	SPOT intensity (GST)	SPOT intensity (Lsb3, P43603)	SPOT intensity (Sla1-3, P32790)	SPOT intensity (Cyk3, Q07533)	SPOT intensity (Cdc25, P04821)	also measured
IRMPSNPALPKKLLN	0	2	2	18	72	0	115	16	2	1	0	0	79	47	352	0	53	0	0	4	SPOT intensity (Myo5, Q04439): 81; SPOT intensity (Hof1, Q05080): 6; SPOT intensity (Abp1, P15891): 231; SPOT intensity (Bem1-1, P29366): 0; SPOT intensity (Lsb4, P32793): 56; SPOT intensity (Nbp2, Q12163): 15; SPOT intensity (Boi1, P38041): 0
AHFQPQRTAPKPPIS	1	0	101	0	413	0	5	0	0	1	0	1860	1	17	13	0	0	4	0	5	SPOT intensity (Myo5, Q04439): 104; SPOT intensity (Hof1, Q05080): 0; SPOT intensity (Abp1, P15891): 19; SPOT intensity (Bem1-1, P29366): 0; SPOT intensity (Lsb4, P32793): 4; SPOT intensity (Nbp2, Q12163): 750; SPOT intensity (Boi1, P38041): 0
RPVPRRPSQPLNTLS	0	1	423	0	5	4060	26	34	13	11	0	75	95	94	348	0	138	31	1	37	SPOT intensity (Myo5, Q04439): 0; SPOT intensity (Hof1, Q05080): 13; SPOT intensity (Abp1, P15891): 125; SPOT intensity (Bem1-1, P29366): 0; SPOT intensity (Lsb4, P32793): 163; SPOT intensity (Nbp2, Q12163): 71; SPOT intensity (Boi1, P38041): 0
IAPIPMPKPNPTHIS	0	1	0	1	22	0	43	0	0	0	0	0	0	2	54	0	0	0	1	0	SPOT intensity (Myo5, Q04439): 7; SPOT intensity (Hof1, Q05080): 0; SPOT intensity (Abp1, P15891): 44; SPOT intensity (Bem1-1, P29366): 0; SPOT intensity (Lsb4, P32793): 9; SPOT intensity (Nbp2, Q12163): 1; SPOT intensity (Boi1, P38041): 0
